How the values were obtained:
Test in all cases: FACS; CXCR4+ Toledo cells
[1] = biological target: T22-GFP-H6 protein nanoparticle (unlabeled) (horseshoe crab | , UniProt P14216)
[2] = biological target: T22-GFP-H6-ATTO nanoconjugate (T22-GFP-H6 labeled with ATTO488) (horseshoe crab | , UniProt P14216, ATTO488 covalently bound through exposed external lysines (NHS-ester to amine); Poisson dye load distribution, positions not given)
[3] = biological target: T22-GFP-H6-S-Cy5 nanoconjugate (T22-GFP-H6 labeled with Sulfo-Cyanine5) (horseshoe crab | , UniProt P14216, Sulfo-Cyanine 5 covalently bound through exposed external lysines (NHS-ester to amine); Poisson dye load distribution, positions not given)

B1: CXCR4 receptor on human Toledo diffuse large B-cell lymphoma cells (receptor)
chain: MEGISIYTSDNYTEEMGSGDYDSMKEPCFREENANFNKIFLPTIYSIIFLTGIVGNGLVILVMGYQKKLRSMTDKYRLHLSVADLLFVITLPFWAVDAVANWYFGNFLCKAVHVIYTVNLYSSVLILAFISLDRYLAIVHATNSQRPRKLLAEKVVYVGVWIPALLLTIPDFIFANVSEADDRYICDRFYPNDLWVVVFQFQHIMVGLILPGIVILSCYCIIISKLSHSKGHQKRKALKTTVILILAFFACWLPYYIGISIDSFILLEIIKQGCEFENTVHKWISITEALAFFHCCLNPILYAFLGAKFKTSAQHALTSVSRGSSLKILSKGKRGGHSSVSTESESSSFHSS
A Kd [1] of 140 nM, a Kd [2] of 250 nM and a Kd [3] of 540 nM were found for B1 in this work.

— PMC7690626 (2020)
